The results in this text go back to paper PMC3531251, “Yeast importin-β is required for nuclear import of the Mig2 repressor” (BMC Cell Biology, 2012).

This assay addresses T1, Kap60 (importin-α), purified from E. coli (S. cerevisiae, UniProt Q02821 1-542).
T1 construct: also called purified Kap60; GST-Kap60 (before thrombin); source: E. coli BL21(DE3) pLysS, purified on glutathione-Sepharose, released with thrombin
T1 sequence (looked up): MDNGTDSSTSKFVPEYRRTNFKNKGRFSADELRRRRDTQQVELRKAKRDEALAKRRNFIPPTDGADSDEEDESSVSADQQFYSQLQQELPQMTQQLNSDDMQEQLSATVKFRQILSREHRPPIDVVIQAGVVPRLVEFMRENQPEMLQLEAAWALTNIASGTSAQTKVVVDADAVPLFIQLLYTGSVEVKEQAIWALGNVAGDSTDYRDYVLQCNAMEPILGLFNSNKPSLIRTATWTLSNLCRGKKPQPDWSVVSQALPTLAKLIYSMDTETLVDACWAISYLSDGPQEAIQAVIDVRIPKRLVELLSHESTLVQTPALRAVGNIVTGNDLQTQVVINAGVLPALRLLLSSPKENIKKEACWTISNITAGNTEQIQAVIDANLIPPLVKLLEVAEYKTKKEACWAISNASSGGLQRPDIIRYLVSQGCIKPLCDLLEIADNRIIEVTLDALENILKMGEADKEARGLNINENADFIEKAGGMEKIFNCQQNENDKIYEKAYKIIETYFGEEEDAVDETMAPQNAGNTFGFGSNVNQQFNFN
The experiment in a line: pull-down; GST fusion on glutathione-Sepharose incubated with purified Kap60 and/or Kap95 (thrombin-released), no Gsp1; 1 h at 4°C in PBS; blot with anti-Kap60 or anti-Kap95. The note with it: both partners purified.

B1: GST-Mig2nls1 fusion protein (natural protein)
chain: not shown
notes: Held on glutathione-Sepharose beads in the pull-downs; also called Mig2nls1-GST; MIG2K32AK33AR37A; source: E. coli BL21(DE3) pLysS, purified on glutathione-Sepharose
As for B1, the binding result is “binds”.

B2: GST-Mig2 fusion protein (natural protein)
chain: not shown
notes: Mig2 of Saccharomyces cerevisiae, PCR fragment cloned in the SalI site of pGEX-4T-1; also called Mig2-GST; pGEX/MIG2; source: E. coli BL21(DE3) pLysS, purified on glutathione-Sepharose
As for B2, the binding result is “binds”.
